# Experimental data published in the supplement of paper PMC11316812.
# ± gives the standard deviation of the averaged measurements.
# Assays:
# MCF7 = assay: percentage of EdU-negative (G0-arrested) nuclei per well, 72 h; higher = more G0 arrest; conditions: reference: sequence is the full UniProt precursor, the tested protein was the secreted form or ectodomain
# hTERT-HMEC = assay: as above; conditions: reference: sequence is the full UniProt precursor, the tested protein was the secreted form or ectodomain
# [1] = protein concentration 0.0225 µM
# [2] = protein concentration 0.0357143 µM
# [3] = protein concentration 0.357143 µM
# [4] = protein concentration 0.0257143 µM
# [5] = protein concentration 0.257143 µM
# [6] = protein concentration 0.0185 µM
# 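Also: secreted proteins added to cultured cells, EdU pulse at the end, nuclei found by Hoechst imaging, EdU status from nuclear versus surrounding ring intensity ratio, PBS as neutral control.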
Sequence,percentage of EdU-negative (MCF7; [1]),percentage of EdU-negative (MCF7; protein concentration 0.225 µM),percentage of EdU-negative (hTERT-HMEC; [1]),percentage of EdU-negative (hTERT-HMEC; protein concentration 0.225 µM),other results
MAAAVVLAAGLRAARRAVAATGVRGGQVRGAAGVTDGNEVAKAQQATPGGAAPTIFSRILDKSLPADILYEDQQCLVFRDVAPQAPVHFLVIPKKPIPRISQAEEEDQQLLGHLLLVAKQTAKAEGLGDGYRLVINDGKLGAQSVYHLHIHVLGGRQLQWPPG [Q9BX68],24.7 ± 1.1%,26.8 ± 0.95%,4.56 ± 0.51%,5.01 ± 0.41%,–
MAAAWTVVLVTLVLGLAVAGPVPTSKPTTTGKGCHIGRFKSLSPQELASFKKARDALEESLKLKNWSCSSPVFPGNWDLRLLQVRERPVALEAELALTLKVLEAAAGPALEDVLDQPLHTLHHILSQLQACIQPQPTAGPRPRGRLHHWLHRLQEAPKKESAGCLEASVTFNLFRLLTRDLKYVADGNLCLRTSTHPEST [Q8IU54],–,–,–,–,percentage of EdU-negative (MCF7; [2]): 25.7 ± 0.7%; percentage of EdU-negative (MCF7; [3]): 26.7 ± 1.7%; percentage of EdU-negative (hTERT-HMEC; [2]): 7.03 ± 0.88%; percentage of EdU-negative (hTERT-HMEC; [3]): 20.5 ± 5.7%
MAAEPLTELEESIETVVTTFFTFARQEGRKDSLSVNEFKELVTQQLPHLLKDVGSLDEKMKSLDVNQDSELKFNEYWRLIGELAKEIRKKKDLKIRKK,27.3 ± 1.9%,25.4 ± 0.45%,4.78 ± 0.24%,5.02 ± 0.53%,–
MAAERGARRLLSTPSFWLYCLLLLGRRAPGAAAARSGSAPQSPGASIRTFTPFYFLVEPVDTLSVRGSSVILNCSAYSEPSPKIEWKKDGTFLNLVSDDRRQLLPDGSLFISNVVHSKHNKPDEGYYQCVATVESLGTIISRTAKLIVAGLPRFTSQPEPSSVYAGNNAILNCEVNADLVPFVRWEQNRQPLLLDDRVIKLPSGMLVISNATEGDGGLYRCVVESGGPPKYSDEVELKVLPDPEVISDLVFLKQPSPLVRVIGQDVVLPCVASGLPTPTIKWMKNEEALDTESSERLVLLAGGSLEISDVTEDDAGTYFCIADNGNETIEAQAELTVQAQPEFLKQPTNIYAHESMDIVFECEVTGKPTPTVKWVKNGDMVIPSDYFKIVKEHNLQVLGLVKSDEGFYQCIAENDVGNAQAGAQLIILEHAPATTGPLPSAPRDVVASLVSTRFIKLTWRTPASDPHGDNLTYSVFYTKEGIARERVENTSHPGEMQVTIQNLMPATVYIFRVMAQNKHGSGESSAPLRVETQPEVQLPGPAPNLRAYAASPTSITVTWETPVSGNGEIQNYKLYYMEKGTDKEQDVDVSSHSYTINGLKKYTEYSFRVVAYNKHGPGVSTPDVAVRTLSDVPSAAPQNLSLEVRNSKSIMIHWQPPAPATQNGQITGYKIRYRKASRKSDVTETLVSGTQLSQLIEGLDRGTEYNFRVAALTINGTGPATDWLSAETFESDLDETRVPEVPSSLHVRPLVTSIVVSWTPPENQNIVVRGYAIGYGIGSPHAQTIKVDYKQRYYTIENLDPSSHYVITLKAFNNVGEGIPLYESAVTRPHTDTSEVDLFVINAPYTPVPDPTPMMPPVGVQASILSHDTIRITWADNSLPKHQKITDSRYYTVRWKTNIPANTKYKNANATTLSYLVTGLKPNTLYEFSVMVTKGRRSSTWSMTAHGTTFELVPTSPPKDVTVVSKEGKPKTIIVNWQPPSEANGKITGYIIYYSTDVNAEIHDWVIEPVVGNRLTHQIQELTLDTPYYFKIQARNSKGMGPMSEAVQFRTPKADSSDKMPNDQASGSGGKGSRLPDLGSDYKPPMSGSNSPHGSPTSPLDSNMLLVIIVSVGVITIVVVVIIAVFCTRRTTSHQKKKRAACKSVNGSHKYKGNSKDVKPPDLWIHHERLELKPIDKSPDPNPIMTDTPIPRNSQDITPVDNSMDSNIHQRRNSYRGHESEDSMSTLAGRRGMRPKMMMPFDSQPPQPVISAHPIHSLDNPHHHFHSSSLASPARSHLYHPGSPWPIGTSMSLSDRANSTESVRNTPSTDTMPASSSQTCCTDHQDPEGATSSSYLASSQEEDSGQSLPTAHVRPSHPLKSFAVPAIPPPGPPTYDPALPSTPLLSQQALNHHIHSVKTASIGTLGRSRPPMPVVVPSAPEVQETTRMLEDSESSYEPDELTKEMAHLEGLMKDLNAITTA,–,–,–,–,percentage of EdU-negative (MCF7; [4]): 24 ± 1.2%; percentage of EdU-negative (MCF7; [5]): 26.44 ± 0.25%; percentage of EdU-negative (hTERT-HMEC; [4]): 6.13 ± 1.3%; percentage of EdU-negative (hTERT-HMEC; [5]): 12.3 ± 1.7%
MAAFPHKIIFFLVCSTLTHVAFSGIFNKRDFTRWPKPRCKMYIPLDPDYNADCPNVTAPVCASNGHTFQNECFFCVEQREFHYRIKFEKYGKCD [Q1W4C9],26.8 ± 1.7%,27.7 ± 0.31%,5.06 ± 0.42%,7.07 ± 0.77%,–
MAAHLLPICALFLTLLDMAQGFRGPLLPNRPFTTVWNANTQWCLERHGVDVDVSVFDVVANPGQTFRGPDMTIFYSSQLGTYPYYTPTGEPVFGGLPQNASLIAHLARTFQDILAAIPAPDFSGLAVIDWEAWRPRWAFNWDTKDIYRQRSRALVQAQHPDWPAPQVEAVAQDQFQGAARAWMAGTLQLGRALRPRGLWGFYGFPDCYNYDFLSPNYTGQCPSGIRAQNDQLGWLWGQSRALYPSIYMPAVLEGTGKSQMYVQHRVAEAFRVAVAAGDPNLPVLPYVQIFYDTTNHFLPLDELEHSLGESAAQGAAGVVLWVSWENTRTKESCQAIKEYMDTTLGPFILNVTSGALLCSQALCSGHGRCVRRTSHPKALLLLNPASFSIQLTPGGGPLSLRGALSLEDQAQMAVEFKCRCYPGWQAPWCERKSMW,26.3 ± 0.86%,26 ± 1.1%,5.35 ± 0.22%,5.55 ± 0.18%,–
MAALLLGAVLLVAQPQLVPSRPAELGQQELLRKAGTLQDDVRDGVAPNGSAQQLPQTIIIGVRKGGTRALLEMLSLHPDVAAAENEVHFFDWEEHYSHGLGWYLSQMPFSWPHQLTVEKTPAYFTSPKVPERVYSMNPSIRLLLILRDPSERVLSDYTQVFYNHMQKHKPYPSIEEFLVRDGRLNVDYKALNRSLYHVHMQNWLRFFPLRHIHIVDGDRLIRDPFPEIQKVERFLKLSPQINASNFYFNKTKGFYCLRDSGRDRCLHESKGRAHPQVDPKLLNKLHEYFHEPNKKFFELVGRTFDWH,–,–,–,–,percentage of EdU-negative (MCF7; [6]): 21.85 ± 0.18%; percentage of EdU-negative (MCF7; protein concentration 0.185 µM): 26.7 ± 1.6%; percentage of EdU-negative (hTERT-HMEC; [6]): 4.41 ± 0.35%; percentage of EdU-negative (hTERT-HMEC; protein concentration 0.185 µM): 11.85 ± 0.08%
MAALSRALGPLRTPAPPLWIGLFLVATGSQQSLAQPLPGNTTEATPRSLRASGSLCGPHAKAPYLCEATHEPAAARIRAQVPDTRWSRVGGQRFYSRVLSPLHRGPSGHTEASAQRSHMGKLKEPQPQDHKPGLGAS [Q6UXU0],27.9 ± 0.64%,23.7 ± 2.8%,5.38 ± 0.31%,5.92 ± 0.84%,–
